According to US20210163622A1 (FATE THERAPEUTICS, published 2021):

Target: T1, human MICA on target cells (human, UniProt Q29983 24-383)
T1 sequence (looked up): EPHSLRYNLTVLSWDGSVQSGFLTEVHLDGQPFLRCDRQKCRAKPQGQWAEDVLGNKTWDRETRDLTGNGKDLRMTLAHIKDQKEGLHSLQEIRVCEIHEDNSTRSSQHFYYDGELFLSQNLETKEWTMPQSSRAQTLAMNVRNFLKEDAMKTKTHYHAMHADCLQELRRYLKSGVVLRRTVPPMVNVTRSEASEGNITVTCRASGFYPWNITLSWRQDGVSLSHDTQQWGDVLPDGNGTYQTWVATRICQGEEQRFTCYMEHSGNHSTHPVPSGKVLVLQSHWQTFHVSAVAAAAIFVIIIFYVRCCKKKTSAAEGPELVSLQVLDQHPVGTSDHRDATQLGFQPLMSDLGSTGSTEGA
Assay: cell-based or functional assay

B1: MICA/B CAR (chimeric antigen receptor with a MICA/B-binding scFV; version not stated at the assay) (scFv, V domains shown)
VH: QIQLVQSGPELKKPGETVKVSCKASGYMFTNYAMNWVKQAPEKGLKWMGWINTHTGDPTYADDFKGRIAFSLETSASTAYLQINNLKNEDTATYFCVRTYGNYAMDYWGQGTSVTVSS
VL: DIQMTQTTSSLSASLGDRVTISCSASQDISNYLNWYQQKPDGTVKLLIYDTSILHLGVPSRFSGSGSGTDYSLTISNLEPEDIATYYCQQYSKFPRTFGGGTTLEIK
B1 was tested, and the “cytotoxicity of MICA/B CAR+ T cells against MICA+ Nalm6 cells, % Caspase 3/7+ target cells over E:T ratio, 4 h (EC50)” value was roughly 1.9 and the “cytotoxicity of MICA/B CAR+ iNK cells against P815 MICA+ cells, % Caspase 3/7+ target cells over E:T ratio, 4 h (EC50)” value was roughly 5.2.
